Results taken from patent publication US20240018251A1 (BIOHENG THERAPEUTICS, published 2024).
Numbering of substitutions follows the chain as printed.

T1: FITC labeled BCMA (acrobiosystem, Cat. No. BCA-HF254) (UniProt Q02223 1-54, FITC labeled (site not stated))
T1 construct: Soluble labeled protein used to stain CAR-T cells; also called BCMA antigen protein; BCMA protein
T1 sequence (looked up): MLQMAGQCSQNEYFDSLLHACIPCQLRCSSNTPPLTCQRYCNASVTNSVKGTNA

B1: chimeric antigen receptor comprising humanized anti-BCMA single domain antibody BH86_V1, on CAR-T cells (other)
chain: QVQLVESGGGLVQAGESLRLSCAASGRAISSIVMAWWRQTPGAEREFVASINRWGGTPYYSDSVKGRFTISRDNSKNTLYLQMNSLRAEDTAVYYCAAASTLDSGYDYWGQGTLVTVSTTTPAPRPPTPAPTIASQPLSLRPEACRPAAGGAVHTRGLDFACDIYIWAPLAGTCGVLLLSLVITLYCKRGRKKLLYIFKQPFMRPVQTTQEEDGCSCRFPEEEEGGCELRVKFSRSADAPAYQQGQNQLYNELNLGRREEYDVLDKRRGRDPEMGGKPRRKNPQEGLYNELQKDKMAEAYSEIGMKGERRRGKGHDGLYQGLSTATKDTYDALHMQALPPR
B2: chimeric antigen receptor comprising humanized anti-BCMA single domain antibody BH86_V4, on CAR-T cells (other)
chain: B1 chain with Q111H
B3: chimeric antigen receptor comprising humanized anti-BCMA single domain antibody BH86_V6, on CAR-T cells (other)
chain: B1 chain with D62N, T69A, L79I, Y80H, A88S, Q111H
B4: chimeric antigen receptor comprising humanized anti-BCMA single domain antibody BH86_GKV2, on CAR-T cells (other)
chain: QEVLVESGGGLVQPGGSLRLSCAASGRAISSIVMAWWRQTPGAEREFVASINRWGGTPYYSDSVKGRFTISRDHAKNTLYLQMNSLKSADTAVYYCAAASTLDSGYDYWGPGTQVTVSTTTPAPRPPTPAPTIASQPLSLRPEACRPAAGGAVHTRGLDFACDIYIWAPLAGTCGVLLLSLVITLYCKRGRKKLLYIFKQPFMRPVQTTQEEDGCSCRFPEEEEGGCELRVKFSRSADAPAYQQGQNQLYNELNLGRREEYDVLDKRRGRDPEMGGKPRRKNPQEGLYNELQKDKMAEAYSEIGMKGERRRGKGHDGLYQGLSTATKDTYDALHMQALPPR
B5: chimeric antigen receptor comprising humanized anti-BCMA single domain antibody BH86_GKV3, on CAR-T cells (other)
chain: B4 chain with P111Q
B6: chimeric antigen receptor comprising humanized anti-BCMA single domain antibody BH86_GKV1, on CAR-T cells (other)
chain: B4 chain with K87R, S88A, A89E, P111H
B7: chimeric antigen receptor comprising humanized anti-BCMA single domain antibody BH86_V2, on CAR-T cells (other)
chain: EVQLVESGGGLVKPGGSLRLSCAASGRAISSIVMAWVRQAPGKGLEWVASINRWGGTPYYSAPVKGRFTISRDDSKNTLYLQMNSLKTEDTAVYYCAAASTLDSGYDYWGQGTLVTVSSTTTPAPRPPTPAPTIASQPLSLRPEACRPAAGGAVHTRGLDFACDIYIWAPLAGTCGVLLLSLVITLYCKRGRKKLLYIFKQPFMRPVQTTQEEDGCSCRFPEEEEGGCELRVKFSRSADAPAYQQGQNQLYNELNLGRREEYDVLDKRRGRDPEMGGKPRRKNPQEGLYNELQKDKMAEAYSEIGMKGERRRGKGHDGLYQGLSTATKDTYDALHMQALPPR
B8: chimeric antigen receptor comprising humanized anti-BCMA single domain antibody BH60_V1, on CAR-T cells (other)
chain: QVQLVESGGGLVQPGGSLRLSCAVSGGIFTINDMAWFRQAPGKQRELVAHISRSGSTYYRDSVKGRFTISRDNSKNTLYLQMNSLRAEDTATYYCNSIDRPLSYGQGTLVTVSTTTPAPRPPTPAPTIASQPLSLRPEACRPAAGGAVHTRGLDFACDIYIWAPLAGTCGVLLLSLVITLYCKRGRKKLLYIFKQPFMRPVQTTQEEDGCSCRFPEEEEGGCELRVKFSRSADAPAYQQGQNQLYNELNLGRREEYDVLDKRRGRDPEMGGKPRRKNPQEGLYNELQKDKMAEAYSEIGMKGERRRGKGHDGLYQGLSTATKDTYDALHMQALPPR
B9: chimeric antigen receptor comprising humanized anti-BCMA single domain antibody BH60_GKV2, on CAR-T cells (other)
chain: B8 chain with V24A, S74A, T77S, T92V, L109Q
B10: chimeric antigen receptor comprising humanized anti-BCMA single domain antibody BH60_GKV1, on CAR-T cells (other)
chain: B8 chain with A23V, V24A, S74A, T77S, T92V
B11: chimeric antigen receptor comprising humanized anti-BCMA single domain antibody BH60_V6, on CAR-T cells (other)
chain: B8 chain with A23V, S62F, L78S, S84N
B12: chimeric antigen receptor comprising humanized anti-BCMA single domain antibody BH60_V5, on CAR-T cells (other)
chain: B8 chain with A23V, S62F
B13: chimeric antigen receptor comprising humanized anti-BCMA single domain antibody BH60_V3, on CAR-T cells (other)
chain: EVQLVESGGGLVQPGGSLRLSCVVSGGIFTINDMAWVRQAPGKGLEWVAHISRSGSTYYRDSVKGRFTISRDNAKNSLYLQMNSLRAEDTAVYYCNSIDRPLSYGQGTLVTVSSTTTPAPRPPTPAPTIASQPLSLRPEACRPAAGGAVHTRGLDFACDIYIWAPLAGTCGVLLLSLVITLYCKRGRKKLLYIFKQPFMRPVQTTQEEDGCSCRFPEEEEGGCELRVKFSRSADAPAYQQGQNQLYNELNLGRREEYDVLDKRRGRDPEMGGKPRRKNPQEGLYNELQKDKMAEAYSEIGMKGERRRGKGHDGLYQGLSTATKDTYDALHMQALPPR

Target: T1, FITC labeled BCMA (acrobiosystem, Cat. …)
Test: flow cytometry, CAR-T cells stained with FITC labeled BCMA
Method: After culturing at 37° C. and 5% CO₂ for 10 days, FITC labeled BCMA (acrobiosystem, Cat. No. BCA-HF254) was used for binding specific staining, and the ability of the corresponding CAR-T cells to specifically bind to the BCMA antigen protein was detected by flow cytometry, which also reflected the expression level of the CAR molecule.

Row | Binder | binding result
1 | B1 | binds
2 | B2 | binds
3 | B3 | binds
4 | B4 | binds
5 | B5 | binds
6 | B6 | binds
7 | B7 | binds
8 | B8 | binds
9 | B9 | binds
10 | B10 | binds
11 | B11 | binds
12 | B12 | binds
13 | B13 | binds
